# Test results reported in patent publication US20130189283A1.
# Where no end group is shown, it is not given here.
# Target: Kv1.3 voltage-gated potassium channel on T cells in human whole blood (human) (UniProt P22001)
# Assay: cell-based or functional assay
# Sequence of Kv1.3 voltage-gated potassium channel on T cells in human whole blood (human) (P22001 whole entry): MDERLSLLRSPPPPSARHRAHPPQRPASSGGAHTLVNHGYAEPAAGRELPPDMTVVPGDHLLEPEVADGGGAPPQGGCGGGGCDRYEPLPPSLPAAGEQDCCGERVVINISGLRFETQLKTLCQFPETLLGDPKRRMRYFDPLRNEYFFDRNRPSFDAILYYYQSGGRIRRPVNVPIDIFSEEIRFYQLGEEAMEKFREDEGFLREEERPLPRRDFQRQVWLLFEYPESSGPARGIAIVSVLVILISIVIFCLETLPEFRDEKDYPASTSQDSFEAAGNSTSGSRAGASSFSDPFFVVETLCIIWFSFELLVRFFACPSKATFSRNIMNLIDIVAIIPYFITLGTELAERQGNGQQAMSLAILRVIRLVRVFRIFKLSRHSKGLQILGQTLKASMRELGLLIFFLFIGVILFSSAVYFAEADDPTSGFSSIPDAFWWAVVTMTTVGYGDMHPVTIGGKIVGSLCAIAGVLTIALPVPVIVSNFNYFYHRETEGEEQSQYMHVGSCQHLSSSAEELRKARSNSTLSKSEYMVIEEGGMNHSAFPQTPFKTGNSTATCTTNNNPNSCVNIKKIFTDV
Binder,"Potency Relative to ShK (WB, IL2)",WB (IFNg) IC50,WB (IL-2) IC50
"GGGGSGGGGSRSCIDTIPKSRCTAFQCKHSMKYRLSFCRKTCGTC (Fc fusion, not fully specified (N-terminus); ends and bridges not checked; also: homodimer via Fc) [Bivalent Fc-L10-ShK[1-35] homodimer]",5.76 fold,320 pM,386 pM
"GGGGSGGGGSSCIDTIPKSRCTAFQCKHSMKYRLSFCRKTCGTC (Fc fusion, not fully specified (N-terminus); ends and bridges not checked; also: homodimer via Fc) [Bivalent Fc-L10-ShK[2-35] homodimer]",8.73 fold,2280 pM,585 pM
